This is an account of results in publication PMC9132103 (Science (New York, N.Y.), 2021).

The data set “cryo-EM structure” deals with the molecule itself. In words: cryo-EM structure.
Data set [1] deals with T1, IL-10Rα ECD, from Expi-293 cells (for structural studies) (human, UniProt Q13651 20-235).
T1 sequence (looked up): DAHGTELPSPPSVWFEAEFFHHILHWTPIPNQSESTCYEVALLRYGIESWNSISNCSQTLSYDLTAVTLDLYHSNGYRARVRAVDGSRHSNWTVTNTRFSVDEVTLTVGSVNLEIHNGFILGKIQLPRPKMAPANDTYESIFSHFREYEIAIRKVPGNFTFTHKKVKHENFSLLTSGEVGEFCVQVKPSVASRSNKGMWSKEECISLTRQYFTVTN
In words: SEC.

B1: Affinity matured IL-10 (super-10, clone 5.1), soluble (ligand, UniProt P22301 19-178, looked up)
chain: SPGQGTQSENSCTHFPGYLPNMLRDLRDAFSRVKTFFQMKDQLDNLLLKESLLEDFKGYLGCQALSEMIQFYLEEVMPQAENQDPDIKAHVQSLGENLKDLRLWLRRCHRFLPCENKSKAVEQVKNAFNKLQEKGIYKAMSEFDIFINYIEAYMTMKIRN
Consider B1, for which the binding result (in the data set “cryo-EM structure”; in data set [1]) was “binds” in each case.
